Test results taken from US20180030127A1 (APRILBIO, published 2018).

B1: SL310 (Fab, V domains shown)
VH: QVQLVQSGGGPVKPGGSLRLSCAASGFMFRAYSMNWVRQAPGKGLEWVSSISSSGRYIHYADSVKGRFTISRDNAKNSLYLQMNSLRAEDTAVYYCARETVMAGKALDYWGQGTLVTVSS
VL: ELVLTQSPGTLSLSPGERATLSCRASQSVSSSSLAWYQQKPGQAPRLLIYGASSRATGIPDRFSGSGSGTDFTLTISSLQPEDAATYYCQKYSSYPLTFGQGTKLEIKR
notes: Human Fab (VH+CH1, VL+CLk); tested on phage and as soluble Fab purified from E. coli; also called SL310 Fab
B2: SA139 (Fab, V domains shown)
VH: EVQLLQSGAEVKEPGASVKVSCKASGYTFSSYGISWVRQAPGQGLEWVGRINTYNGNTGYAQRLQGRVTMTTDTSTSIAYMEVRSLRSDDTAVYYCARLGHCQRGICSDALDTWGQGTMVTVSS
VL: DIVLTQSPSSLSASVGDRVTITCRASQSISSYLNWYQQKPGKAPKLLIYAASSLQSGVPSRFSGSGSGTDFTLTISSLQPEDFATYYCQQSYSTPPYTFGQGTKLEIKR
notes: Human Fab (VH+CH1, VL+CLk); also called SA139 Fab
B3: SA141 (Fab, V domains shown)
VH: QVQLVQSGGGLVQPGGSLRLSCAASGFTFSSYAMSWVRQAPGKGLEWLSVISHDGGFQYYADSVKGRFTVSRDNSKNTLYLQMNSLRAEDTAVYYCARAGWLRQYGMDVWGQGTLVTVSS
VL: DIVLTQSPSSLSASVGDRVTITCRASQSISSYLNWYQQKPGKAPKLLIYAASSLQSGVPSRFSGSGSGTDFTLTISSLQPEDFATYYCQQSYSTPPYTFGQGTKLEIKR
notes: also called SA141 Fab
B4: SL18 (Fab, V domains shown)
VH: EVQLVQSGTEVKKPGESLKISCKISGYSFTAYWIAWVRQMPGKGLEWMGMIWPPDADARYSPSFQGQVTFSVDKSISTAYLQWHSLKTSDTAVYYCARLYSGSYSPWGQGTLVTVSS
VL: ELVLTQSPGTLSLSPGERATLSCRASQSIFNYVAWYQQKPGQAPRLLIYDASNRATGIPARFSGSGSGTDFTLTISSLEPEDFAVYYCQQRSKWPPTWTFGQGTRVDIKR
notes: Human Fab (VH+CH1, VL+CLk); tested on phage and as soluble Fab purified from E. coli; also called SL18 Fab
B5: SL301 (Fab, V domains shown)
VH: B1 VH
VL: ELVLTQSPGTLSLSPGERATLSCRASETVSSRQLAWYQQKPGQAPRLLIYGASSRATGIPDRFSGSGSGTDFTLTISRLEPEDSAVFYCQQYGSSPRTFGGGTKLEIKR
notes: Human Fab (VH+CH1, VL+CLk); tested on phage and as soluble Fab purified from E. coli; also called SL301 Fab
B6: SA140 (Fab, V domains shown)
VH: QVQLVQSGGGVVQTGGSLRLSCAASGFTFRNYGIHWVRQAPGKGLEWVASISYDGSNKYYADSVKGRFTISRDNSRNTVHVQMDSLRGGDTAVYYCARDVHYYGSGSYYNAFDIWGQGTLVTVSS
VL: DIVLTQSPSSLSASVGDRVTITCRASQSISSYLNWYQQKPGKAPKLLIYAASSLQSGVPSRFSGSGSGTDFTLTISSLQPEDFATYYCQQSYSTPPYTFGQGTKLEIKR
notes: also called SA140 Fab

How the values were obtained:
[1] = target: T1, bovine serum albumin (bovine, UniProt P02769 25-607); test: monoclonal phage ELISA at pH 6, antigen coated at 5 ug/ml, anti-human kappa-HRPO, A450
T1 construct: also called BSA; bovine SA
T1 sequence (P02769 25-607 limits assumed): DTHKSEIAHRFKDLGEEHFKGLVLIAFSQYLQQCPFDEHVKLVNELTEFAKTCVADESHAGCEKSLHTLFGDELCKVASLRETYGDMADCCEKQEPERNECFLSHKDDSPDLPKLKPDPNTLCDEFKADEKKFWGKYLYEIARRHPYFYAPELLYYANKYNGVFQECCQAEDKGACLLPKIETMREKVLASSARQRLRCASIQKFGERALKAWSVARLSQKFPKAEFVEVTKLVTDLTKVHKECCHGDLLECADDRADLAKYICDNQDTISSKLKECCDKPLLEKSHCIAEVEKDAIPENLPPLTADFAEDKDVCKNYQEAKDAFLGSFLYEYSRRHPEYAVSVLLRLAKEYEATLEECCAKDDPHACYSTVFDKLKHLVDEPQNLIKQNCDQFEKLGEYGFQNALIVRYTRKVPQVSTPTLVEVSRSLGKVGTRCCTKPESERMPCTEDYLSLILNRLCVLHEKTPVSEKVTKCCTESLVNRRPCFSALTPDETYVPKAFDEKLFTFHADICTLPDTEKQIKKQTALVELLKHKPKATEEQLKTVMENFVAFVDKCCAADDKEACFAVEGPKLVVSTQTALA
Experimental: (§1) For the monoclonal phage ELISA, the recombinant phage was obtained from positive E. coli clones by phage rescue, and ˜10⁸ CFU/well were added to MaxiSorb ELISA plates (Nunc, Roskilde, Denmark) that were coated with 5 μg/ml HSA, RSA, MSA or BSA. The phage was allowed to bind to the antigens either at pH 6 or at pH 7.4 for 1 h at 37° C. A goat anti-human kappa L Ab-conjugated with HRPO (Sigma-Aldrich) was used as a secondary antibody. The binding signals were visualized with a TMB substrate (BD Science, San Jose, Calif., USA), and the absorbance at 450 nm was measured using an ELISA reader (Bio-Rad, Hercules, Calif., USA). The data represent the average of three experiments standard deviation. For the conventional ELISA, the various antigens [human SA, rat SA, mouse SA, monkey SA (Alpha diagnositic Intl., San Antonio, Tex., USA), canine SA (CUSABIO, Wuhan, Hubei, China). rabbit SA (Sigma-Aldrich), epidermal growth factor receptor (EGFR) (R&D systems, Minneapolis, Minn., USA), epithelial cell adhesion molecule (EpCAM) (R&D systems), IL-15 receptor a (IL-15Ra) (R&D systems), IL-10 (eBioscience, San Diego, Calif., USA), CD16a (R&D systems), c-MET (Sinobiological, Beijing, China)] at 5 μg/ml concentrations were immobilized on the microtiter plates, and the Fab molecules were allowed to bind to the antigens, and detected as above. To determine the concentration of soluble Fab or Fab-hGH fusion proteins, a sandwich ELISA was performed using a mouse anti-human IgG Fd mAb (AprilBio) as a capturing Ab and the goat anti-human kappa L chain pAb-HRPO conjugated (Sigma-Aldrich) as a detecting antibody. The human Fab fragment (Bethyl, Montgomery, Tex., USA) with a known concentration was used to draw the standard curve. For detecting the hGH domain, T-20, a goat pAb specific for the C-terminus of the hGH (Santacruz Biotechnology, Dallas, Tex., USA) and NYThGH, a mouse mAb specific for full-length hGH (Prospec, East Brunswick, N.J., USA) were used followed by a rabbit anti-goat IgG pAb-HRPO conjugated (Sigma-Aldrich) or a goat anti-mouse IgG pAb-HRPO conjugated (Sigma-Aldrich), respectively as a secondary antibody. A goat anti-human GCSF pAb (R&D Systems) was used to detecting the G-CSF domain, and a rabbit anti-human IFN-β pAb (PEPROTECH, Rocky Hill, USA) was used to detect the IFN-β domain.

[2] = target: T2, human serum albumin (human, UniProt P02768 25-609); test: ELISA at pH 6.0: purified soluble Fab titrated on antigen coated at 5 ug/ml; anti-human kappa L chain pAb-HRPO, TMB, A450
T2 construct: Bought protein; also called HSA; human SA
Experimental: (§2) For the monoclonal phage ELISA, the recombinant phage was obtained from positive E. coli clones by phage rescue, and ˜10⁸ CFU/well were added to MaxiSorb ELISA plates (Nunc, Roskilde, Denmark) that were coated with 5 μg/ml HSA, RSA, MSA or BSA. The phage was allowed to bind to the antigens either at pH 6 or at pH 7.4 for 1 h at 37° C. A goat anti-human kappa L Ab-conjugated with HRPO (Sigma-Aldrich) was used as a secondary antibody. The binding signals were visualized with a TMB substrate (BD Science, San Jose, Calif., USA), and the absorbance at 450 nm was measured using an ELISA reader (Bio-Rad, Hercules, Calif., USA). The data represent the average of three experiments standard deviation. For the conventional ELISA, the various antigens [human SA, rat SA, mouse SA, monkey SA (Alpha diagnositic Intl., San Antonio, Tex., USA), canine SA (CUSABIO, Wuhan, Hubei, China). rabbit SA (Sigma-Aldrich), epidermal growth factor receptor (EGFR) (R&D systems, Minneapolis, Minn., USA), epithelial cell adhesion molecule (EpCAM) (R&D systems), IL-15 receptor a (IL-15Ra) (R&D systems), IL-10 (eBioscience, San Diego, Calif., USA), CD16a (R&D systems), c-MET (Sinobiological, Beijing, China)] at 5 μg/ml concentrations were immobilized on the microtiter plates, and the Fab molecules were allowed to bind to the antigens, and detected as above. […]

[3] = target: T3, rat serum albumin (rat, UniProt P02770 25-608); test: as above
T3 construct: Bought protein; also called RSA; rat SA
T3 sequence (P02770 25-608 limits assumed): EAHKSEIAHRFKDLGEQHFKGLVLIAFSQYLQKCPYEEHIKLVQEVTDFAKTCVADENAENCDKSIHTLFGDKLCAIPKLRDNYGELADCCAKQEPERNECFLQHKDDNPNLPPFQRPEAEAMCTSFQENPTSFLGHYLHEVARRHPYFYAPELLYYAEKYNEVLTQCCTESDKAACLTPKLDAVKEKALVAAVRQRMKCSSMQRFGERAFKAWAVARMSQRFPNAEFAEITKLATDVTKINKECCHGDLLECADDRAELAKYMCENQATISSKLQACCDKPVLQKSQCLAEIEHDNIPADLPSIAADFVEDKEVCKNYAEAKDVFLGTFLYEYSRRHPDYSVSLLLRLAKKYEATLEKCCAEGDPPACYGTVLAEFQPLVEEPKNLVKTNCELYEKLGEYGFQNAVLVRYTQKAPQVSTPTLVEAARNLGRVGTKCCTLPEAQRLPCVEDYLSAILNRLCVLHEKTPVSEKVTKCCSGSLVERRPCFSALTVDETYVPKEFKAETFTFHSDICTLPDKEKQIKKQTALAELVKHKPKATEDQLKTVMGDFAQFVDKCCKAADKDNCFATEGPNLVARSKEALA
Experimental: as §2

[4] = target: T2, human serum albumin; test: ELISA at pH 7.4: purified soluble Fab titrated on antigen coated at 5 ug/ml; anti-human kappa L chain pAb-HRPO, TMB, A450
Experimental: as §2

[5] = target: T3, rat serum albumin; test: as above
Experimental: as §2

[6] = target: T4, mouse serum albumin (mouse, UniProt P07724 25-608); test: monoclonal phage ELISA at pH 6: Fab on phage, about 10^8 CFU/well, on antigen coated at 5 ug/ml; anti-human kappa-HRPO, TMB, A450
T4 construct: Bought protein; also called MSA; mouse SA
T4 sequence (P07724 25-608 limits assumed): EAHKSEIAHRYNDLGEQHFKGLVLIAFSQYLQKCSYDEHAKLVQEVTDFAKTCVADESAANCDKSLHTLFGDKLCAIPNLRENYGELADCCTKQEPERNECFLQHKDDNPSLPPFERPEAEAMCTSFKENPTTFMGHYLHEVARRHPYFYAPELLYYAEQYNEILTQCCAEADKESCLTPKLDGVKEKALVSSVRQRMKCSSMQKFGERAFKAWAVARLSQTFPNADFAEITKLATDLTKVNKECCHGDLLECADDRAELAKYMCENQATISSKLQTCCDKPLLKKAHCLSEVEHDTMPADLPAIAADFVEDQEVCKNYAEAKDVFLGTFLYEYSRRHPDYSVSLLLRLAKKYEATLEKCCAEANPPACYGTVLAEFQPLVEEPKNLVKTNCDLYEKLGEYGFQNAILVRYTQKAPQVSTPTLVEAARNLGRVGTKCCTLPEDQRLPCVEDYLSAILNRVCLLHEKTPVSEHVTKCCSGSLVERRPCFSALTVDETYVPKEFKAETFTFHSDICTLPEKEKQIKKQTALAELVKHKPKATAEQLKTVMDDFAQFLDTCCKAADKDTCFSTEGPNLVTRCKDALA
Experimental: as §2

[7] = target: T3, rat serum albumin; test: monoclonal phage ELISA at pH 7.4, antigen coated at 5 ug/ml, anti-human kappa-HRPO, A450
Experimental: as §1

[8] = target: T4, mouse serum albumin; test: as above
Experimental: as §1

[9] = target: T1, bovine serum albumin; test: as above
Experimental: as §1

[10] = target: T2, human serum albumin; test: monoclonal phage ELISA at pH 7.4: Fab on phage, about 10^8 CFU/well, on antigen coated at 5 ug/ml; anti-human kappa-HRPO, TMB, A450
Experimental: as §1

[11] = target: T3, rat serum albumin; test: monoclonal phage ELISA at pH 6, antigen coated at 5 ug/ml, anti-human kappa-HRPO, A450
Experimental: as §1

[12] = target: T4, mouse serum albumin; test: as above
Experimental: as §1

[13] = target: T3, rat serum albumin; test: monoclonal phage ELISA at pH 7.4: Fab on phage, about 10^8 CFU/well, on antigen coated at 5 ug/ml; anti-human kappa-HRPO, TMB, A450
Experimental: as §1

[14] = target: T4, mouse serum albumin; test: as above
Experimental: as §1

Row | Binder | binding result [1] | binding result [7] | binding result [8] | binding result [10] | binding result [13] | further results
1 | B1 | no binding | – | – | – | – | EC50 (read off the curve) [2]: ~0.1 µg/mL; EC50 (read off the curve) [3]: ~0.6 µg/mL; EC50 (read off the curve) [4]: ~0.3 µg/mL; EC50 (read off the curve) [5]: ~0.2 µg/mL; binding result [6]: binds
2 | B2 | – | no binding | no binding | binds | – | binding result [9]: no binding
3 | B3 | no binding | – | – | binds | – | binding result [11]: no binding; binding result [12]: no binding
4 | B4 | no binding | – | – | binds | binds | binding result [14]: binds
5 | B5 | no binding | – | – | binds | binds | –
6 | B6 | no binding | no binding | no binding | – | – | –
